Results from the RNAGym collection of RNA variant scans (doi:10.1073/pnas.2313332121).

B1: TPR t1 (parent)
chain: GACCAAUCUGCCCUCAGAGCUCGAGAACAUCUUCGGAUGCAGAGGAGGCAGGCUUCGGUGGCGCGAUAGCGCCAACGUCCUCAACCUCCAAUGCAUCCCACCACAUGAUGAUGCCUGAAGAGCCUUGGUUUUUUG

Variants of: B1
Assay: polymerase ribozyme fitness, log enrichment relative to wild type (log ratio); higher = more active; in vitro selection for triplet polymerase activity
In short: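 Each subunit of a heterodimeric triplet polymerase ribozyme was represented by a PCR-built, transcribed mutant library that underwent triplicate single-round in vitro selection with frozen incubation at −7 °C. Extended constructs were recovered by gel excision, streptavidin-bead capture and RT-PCR, and Illumina sequencing of input and output libraries kept genotypes with ≥10 input reads and ≥1 read per output. Fitness is the logarithm of genotype enrichment relative to wild-type enrichment, from inverse-variance-weighted replicate averages, with a logarithm base of 2.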

Row | Variant | polymerase ribozyme fitness (log ratio)
1 | C34U G71U | -3.99
2 | C11A A29G C56G A91C U112A A121G G122C | -1.75
3 | G71C C79U C101U | -0.546
4 | G61A G110A C114G | -6.32
5 | G63A G120C | 0.337
6 | C12G A100C G113U | -5.35
7 | G42C C89G | -1.06
8 | C11U A66G U87G G113U | -5.47
9 | C13U C56U C72G C80U C82U C86U U112C | -3.52
10 | U21A A26G C73U G77A | -2.54
11 | G51A C53A G61A C73U | -2.68
12 | C64G A121U | -4.94
13 | G17C A18G G42U C80U U112C | -0.371
14 | U14G A91U A111G | -4.63
15 | G39A A84C | -1.2
16 | C15U G44C A50C G61U U96C C104U | -2.29
17 | U9A G51U G52U U116A | -3.29
18 | U14G A37C | -2.99
19 | C49A C64U G117U | -2.9
20 | U21A U116G G122U C124G U126A | -1.21
21 | G63U U78C C101A | -4.07
22 | C62U A108C G117U C124A | -6.3
23 | G42C G77A | -1.99
24 | A5G C13U A43U G71A C124U | -1.48

Row | Variant | polymerase ribozyme fitness (log ratio)
25 | C31A C72U U92G G113U | -6.05
26 | A37G C53A C73G A105G U109G U112A | -6.74
27 | G44A G117U | -3.1
28 | U112G U130C | 0.265
29 | G45C G113C | -2.91
30 | C3G C8G G117A G120A G135U | -1.6
31 | A6U C64U | -0.037
32 | C15U G57A G58A U109G G113A | -7.08
33 | G52C C70A G117U G120U | -4.71
34 | C13U U109C | -2.24
35 | C22G C49A G127A U129G | -4.21
36 | G17A G36C | -3.9
37 | C4U A50C A74U C79G G117A | -4.91
38 | A5G A43G G63A U112G | -5.31
39 | C13A A24G G58C C115A | -3.96
40 | A74U U92A | -3.82
41 | C13G A43U C76U | -1.01
42 | A24G U59C U87A | -2.51
43 | C8G C85U C86G | -0.513
44 | C28U C101A U106A | -1.04
45 | C62A C73A | -2.4
46 | G36U U130C | -0.893
47 | A16C G77C G120U C123U | -2.57
48 | G44A C99U | -4.58

Row | Variant | polymerase ribozyme fitness (log ratio)
49 | G48U U109A | -5.53
50 | C62A U87A | -1.8
51 | G10U C114A U125A G135U | -3.39
52 | U9C G58C C114A G127U | -3.7
53 | G60A A66U A111C | -2.41
54 | A41C G51U | -3.29
55 | G60A U109A | -5.33
56 | C11G G44A C56G C82G C88U | -2.81
57 | G42C G45U U133A | -2.53
58 | C86U U112C | 0.942
59 | C12G U55A C56G U81C | -1.29
60 | A83U A91U U92G A111C U130C | -3.89
61 | G10A C76U G110C | -5.64
62 | G117C U133A | -4.07
63 | A46C A100C C115U U129A | -5.33
64 | A43G G45U U59A A66U | -5.27
65 | A26U G36C G61U U81A U87C G120C | -4
66 | C28U C53G U59G | -2.35
67 | A29C C79U | -3.18
68 | A27U A29C G47A C53G A121C | -3.53
69 | G52A C73G C85A | -1.93
70 | A24G G48A | -1.73
71 | C13U G36A | -0.918
72 | C56G A84G | -1.43

Row | Variant | polymerase ribozyme fitness (log ratio)
73 | A46C C64A | -5.98
74 | G117U A121C | -2.4
75 | C8G U9A G17C A95G C115A | -0.322
76 | U7G A111C U112A C123G | -0.393
77 | C12U C15U C72A A121U | 1.3
78 | G17A G77A | -3.49
79 | C4A A18C A43U C72A | -3.77
80 | U59G G113A A121U C123A | -1.97
81 | G93C C123A | -1.09
82 | G42C C115U | -2.24
83 | G47A U87A U96A | -2.62
84 | G63C U87C | -0.645
85 | C13G C76U | -1.95
86 | G45U C101U G113A | -2.93
87 | C8U A29U G47C C72U C102A | -5.13
88 | G42C A84U | -1.87
89 | C11U C123G | 1.73
90 | C8U C22G G57C C89A A95G A111U A121U | -3.38
91 | G51U G69U U87G | -0.427
92 | C49U C114U | -2.25
93 | G10C G39A C76U A84U U87A | -2.28
94 | A95C U131A | -0.642
95 | G42C G117A | -2.18
96 | C56U C86U | -0.265

Row | Variant | polymerase ribozyme fitness (log ratio)
97 | G35C G61A U106G U112A | -3.75
98 | U59G U81A | -0.876
99 | G47U C124A | -0.524
100 | U14C A84C | -2.42
101 | G45A U59G C62G | -3.84
102 | C62A C72U G117A U129A U130C | -2.9
103 | C8U C13A C20A U59A G113A C123G | -1.9
104 | C73U C104A | -1.22
105 | A41C G69U C79G U106A A121U U126G | -0.691
106 | A111C A119C G127U | -2.96
107 | A46U C49U U92A U106A | -7.34
108 | U55A C104A G113C G122U | -3.73
109 | A16U C72A U131C | -1.73
110 | C79G C88G U112A | -1.98
111 | C64U G71U | -2.96
112 | G10C G71U C86U | -1.57
113 | U32C G42C U54G C94A | -2.1
114 | C56U U67A | -5.79
115 | C40U G63C | -0.94
116 | G25C G120A | -5.07
117 | U38G G47U C76U C85U U96C U130C | -5.5
118 | C70A C73U C99U G107U U109C G117U | -6.35
119 | C3U G39A C40U G60C C94A | -2.98
120 | G113C G135U | -4.15

Row | Variant | polymerase ribozyme fitness (log ratio)
121 | C56A G63A C89U | -3.22
122 | U9A A46U G77C G122A | -0.702
123 | C53U G93A A103C | -5.92
124 | C12U A27G G48C | -1.97
125 | A2G C72U | 0.0702
126 | C8G C49A G71U U92A C123U | -2.6
127 | C3A A46C C53A C72U | -1.88
128 | C12A G48A | -0.767
129 | U54G U59A C80U C123A U129C | -1.82
130 | A26C G69C G117C | -6.27
131 | C15G A95C A119U | -3.82
132 | A2U U106A U129C | -1.74
133 | A2C C40U G60U C62G | -3.56
134 | C80A A95G | -3.38
135 | G60A C114G | -2.53
136 | U55A C85A C115G | -3.37
137 | G77A C80U | -0.237
138 | C40G C72U G127C | -2.34
139 | C11A G63C U81G | -5.33
140 | G110C U125A | -5.11
141 | C70U G110A | -1.77
142 | A46G G48A C64A | -6.8
143 | A18U G113U | -4.9
144 | A46C C114U U130G | -3.02

Row | Variant | polymerase ribozyme fitness (log ratio)
145 | G19A C101G | -5.15
146 | C11U G39U A43G | -3.16
147 | G48A C53G U55C C56A | -0.815
148 | G42A G122A | -2.59
149 | U109A C124U | -4.15
150 | C56U C79A | -0.918
151 | G47A G69C C73U U106A | -2.08
152 | C15U C20U G42A A43C G113A | -1.99
153 | U30C C86A G135C | -4.17
154 | C3A C56U G61U G113U G120U U126C | -5.49
155 | C13A G60U | -1.81
156 | C12G C101G C102G G110C | -5.71
157 | C72U C80A U87C | -3.67
158 | C88A U125G | -1.18
159 | U38G A46U G110U | -4.8
160 | C11U U87G C102U | -1.67
161 | G71A A111G G120U | -2.5
162 | C40A U92C A118G | -2.05
163 | U59A C82U | -0.407
164 | A6C G57C C79A C85U | -2.83
165 | G71A C94A | -2.86
166 | G48U C72G U96C | -1.54
167 | C53G A74G | -1.52
